Experimental findings from patent US20150231218A1 (MAYO FOUNDATION FOR MEDICAL EDUCATION AND RESEARCH, published 2015) are described below.

The target of this test is T1, HLA-A2 (class I MHC molecule) on TAP deficient T2 cells.
T1 construct: whole, on cells; Target of the T2 HLA-A2 stabilization assay; The assay text says only HLA-A2; also called HLA-A*0201
Description: T2 HLA-A2 stabilization assay.
Description: Many of the polypeptides that were processed in the assay were synthesized and tested for binding to the class I MHC molecule, HLA-A2, using the standard T2 HLA-A2 stabilization assay.

Regarding SLAFLPESFD (Synthetic peptide) [HER-2/neu polypeptide p373-382 (SLAFLPESFD)], the binding result is “binds”.
